Data taken from patent US20030224375A1, “Assays for evaluating the function of rna helicases” (priority 2002, published 2003).

Experiments:
[1] = biological target: NPH-II (DExH RNA helicase) (Vaccinia virus) (UniProt P12927); experiment: EMSA
[2] = biological target: U1A (N-terminal RNP domain, residues 1-117) (UniProt P09012); experiment: EMSA
[3] = system: RNA substrate containing the U1A binding site from the 3′-untranslated region (UTR) of U1A mRNA; experiment: U1A dissociation (off-rate) from RNA substrate, gel-shift with U1A trap
Protocol: (§1) FIG. 3. Active displacement of U1A by NPH-II. Dissociation experiments were conducted with 1 nM RNA substrate and 10 nM U1A in a buffer of 40 mM Tris/HCl (pH 8.0), 4 mM MgCl2 at 23° C. (final volume, 40 μL)- Reactions were performed as described in FIG. 2, except that they were initiated by addition of ATP (3.5 mM final concentration) and U1A trap (200 nM final concentration (16)), as indicated. Aliquots (6 μL) were withdrawn at 0, 1, 4, 8, 12, and 20 minutes, mixed with 2 μL of 100 mM EDTA and 2.5 μM NPH-II trap (which serves to capture dissociated NPH-II (16)) in 30% glycerol. Each aliquot was then loaded immediately on a 8% native polyacrylamide gel, which was run at 4° C. at 10V/cm. Bands were visualized by PhosphorImager. U1A-bound and free RNA as well as unwound and duplex RNA species are indicated by the cartoons at left (D: bound U1A dimer, M: bound U1A monomer, F: U1A free duplex substrate, U: unwound substrate). A. Release of U1A upon addition of ATP (initiated by adding ATP together with U1A trap). B. Release of U1A upon addition of NPH-II without ATP (initiated by adding only U1A trap). C. Release of U1A in the presence of ATP and NPH-II (initiated by adding ATP together with U1A trap) D. Trapping control: U1A trap is added together with RNA substrate to assess trapping efficiency. Aliquots were removed and treated as described above. E-H. Same reactions as above, but with blunt-end control duplex.
The off-rate for U1A was measured by saturating the substrate with U1A and, after complex formation, adding a large excess of RNA that contains another high-affinity U1A binding site (15). This prevented U1A from re-binding the substrate once it detached and enabled us to monitor the rate of U1A release by gel-shift electrophoresis (FIG. 3).

[4] = system: RNA substrate containing the U1A binding site from the 3′-untranslated region (UTR) of U1A mRNA; details: previously shown; cited from earlier work
[5] = biological target: U1A (N-terminal RNP domain, residues 1-117) (UniProt P09012 P09012:1-117); experiment: competition; used at 200 nM to trap dissociated U1A; details: chain copies: 2 (stated, dimer; monomer also seen); hairpin
Protocol: as §1, with “MgCl₂” for “MgCl2”, “E-H. Same reactions as above, but with blunt-end control duplex.” left out

DNA = details: cited from earlier work

Work on “36 bp duplex substrate LS36 with 3' overhang” yielded an activity ([1]; unwinding rate constant 3.5±0.2 independent of duplex length, Mg2+, 3.5 mM ATP) of 3.5 min⁻¹.

For “83 bp duplex substrate LS83 with 3' overhang”, the activity ([1]; unwinding rate constant 3.5±0.2 independent of duplex length, lower amplitude with trap RNA, Mg2+, 3.5 mM ATP) was 3.5 min⁻¹.

In the case of “U1A 3'UTR binding site helicase substrate with 24-nt 3' overhang (AN22U-3')”, the activity ([1]; unwinding rate constant without U1A, 3.5 mM ATP, 4 mM MgCl2, pH 8.0, room temperature, with U1A k1 3.52 min-1) is reported as 3.5 min⁻¹ and the koff ([2]; 40 mM Tris pH 8.0, 4 mM MgCl2, 23 C, U1A trap, no NPH-II, high affinity binding at 10 nM U1A) is reported as 0.01 min⁻¹.

In the case of “U1A: RNA-binding protein with N-terminal RNP domain, constituent of the spliceosomal machinery”, the “U1A binding to substrate and control RNA” value ([3]; gel shift, 1 nM RNA, 10 nM U1A) is reported as “high affinity”, the “off-rate koff of U1A” value ([3]; without NPH-II (and ATP)) is reported as ~10^−2 min^−1 and the “U1A dissociates from the substrate” value ([3]; without NPH-II, within 20 minutes) is reported as “roughly 15%”. For the same molecule, the “affinity of extended two-piece substrate for U1A binding” value [4] was “subnanomolar affinity”.

“blunt-end U1A binding site control duplex” showed a koff ([2]; off-rate similar to overhang substrate, not increased by NPH-II plus ATP) of 0.01 min⁻¹.

Work on “multi-piece substrates (nicked top strand)” yielded an activity ([1]; both pieces displaced, 3.3±0.5, Mg2+, trap RNA, 3'-to-5' directionality) of 3.3 min⁻¹.

B1: U1A trap (U1 snRNA hairpin) (ssRNA)
RNA: GGAGAACCAUUGCACUCCGGUUCUUC
B1: binds [5].

B2: UvrD DNA helicase: DNA helicase cited for comparison of unwinding step size (Ali and Lohmann, 1997) (protein, UniProt P03018 1-720, looked up)
DNA helicase II: MDVSYLLDSLNDKQREAVAAPRSNLLVLAGAGSGKTRVLVHRIAWLMSVENCSPYSIMAVTFTNKAAAEMRHRIGQLMGTSQGGMWVGTFHGLAHRLLRAHHMDANLPQDFQILDSEDQLRLLKRLIKAMNLDEKQWPPRQAMWYINSQKDEGLRPHHIQSYGNPVEQTWQKVYQAYQEACDRAGLVDFAELLLRAHELWLNKPHILQHYRERFTNILVDEFQDTNNIQYAWIRLLAGDTGKVMIVGDDDQSIYGWRGAQVENIQRFLNDFPGAETIRLEQNYRSTSNILSAANALIENNNGRLGKKLWTDGADGEPISLYCAFNELDEARFVVNRIKTWQDNGGALAECAILYRSNAQSRVLEEALLQASMPYRIYGGMRFFERQEIKDALSYLRLIANRNDDAAFERVVNTPTRGIGDRTLDVVRQTSRDRQLTLWQACRELLQEKALAGRAASALQRFMELIDALAQETADMPLHVQTDRVIKDSGLRTMYEQEKGEKGQTRIENLEELVTATRQFSYNEEDEDLMPLQAFLSHAALEAGEGQADTWQDAVQLMTLHSAKGLEFPQVFIVGMEEGMFPSQMSLDEGGRLEEERRLAYVGVTRAMQKLTLTYAETRRLYGKEVYHRPSRFIGELPEECVEEVRLRATVSRPVSHQRMGTPMVENDSGYKLGQRVRHAKFGEGTIVNMEGSGEHSRLQVAFQGQGIKWLVAAYARLESV
In the case of B2, the unwinding step size (DNA) is listed as 4-5 bp.
